Reference: US20160130303A1 (RAMOT AT TEL AVIV UNIVERSITY, published 2016)
Where no end group is shown, it is not given here. [ ]: non-standard residue; d: D form. The star is where a group is joined. Myristoyl = CCCCCCCCCCCCCC(=O)*; pS = N[C@@H](COP(=O)(O)O)C(=O)O

Target: wild-type (WT) GSK-3β (human, UniProt P49841 1-420, phosphorylated at Tyr 216 (shown by western blot))
Test: cell-based or functional assay

Sequence of wild-type (WT) GSK-3β (P49841 other isoform, or with tags, fused parts or gaps limits assumed): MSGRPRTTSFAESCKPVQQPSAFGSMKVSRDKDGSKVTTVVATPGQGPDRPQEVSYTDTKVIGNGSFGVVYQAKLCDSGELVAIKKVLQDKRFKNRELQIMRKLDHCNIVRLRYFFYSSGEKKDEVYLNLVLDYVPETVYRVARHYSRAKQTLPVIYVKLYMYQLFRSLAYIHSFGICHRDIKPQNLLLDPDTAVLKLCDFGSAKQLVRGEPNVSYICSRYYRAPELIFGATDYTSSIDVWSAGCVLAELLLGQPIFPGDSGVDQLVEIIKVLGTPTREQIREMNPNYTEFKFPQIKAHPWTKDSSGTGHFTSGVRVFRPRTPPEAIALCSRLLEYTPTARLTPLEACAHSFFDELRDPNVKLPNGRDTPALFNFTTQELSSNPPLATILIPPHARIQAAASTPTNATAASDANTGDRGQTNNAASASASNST

inhibition of GSK-3β in in vitro kinase assays (substrate phosphorylation, no inhibitor = 100%) | IC50, in vitro kinase assays with GSK-3β at increasing inhibitor concentrations | Binder
~2 fold relative to L803 | – | KEAPPAPPA[pS]P [PQ9A (L803 variant where Gln9 was replaced by alanine)]
– | ~1000 nM | Myristoyl-GKEAPPAPPP[pS]P [L806-mts, Myr-GKEAPPAPPPS(p)P]
